Where a chain is given by its changes, count along the chain named.
B1: H89/L16 (antibody, V domains shown)
VH: QVQLVESGGGLVQPGGSLRLSCAASGFTFSDYYLSWVRQAPGKGLEWVGLIRNKANGYTREYSASVKGRFTISRDDSKNSLYLQMSSLKTEDTAVYYCARENHRYDVELAYWGQGTLVTVSS
VL: DIQMTQSPSSLSASVGDRVTITCRASEIIYSYLAWYQQKPGKAPKLLIYNAKTHADGVPSRFSGSGSGTDFTFTISSLQPEDIATYYCQHHFGFPRTFGQGTKVEIKR
B2: H1009/L395 (antibody, V domains shown)
VH: B1 VH with A55D, G57Y, Y58H, R60P, Q84T, S87D
VL: B1 VL with N50K, Q89K
B3: H89/L118 (antibody, V domains shown)
VH: B1 VH
VL: B1 VL with N50H, Q89K
B4: Hr9/L16 (antibody, V domains shown)
VH: B1 VH with H103Y
VL: B1 VL

How the values were obtained:
human IL-8 [1] = biological target: human IL-8 (human); experiment: SPR, pH 7.4, 37C
Sequence of human IL-8 (human) (chain, as listed by the source): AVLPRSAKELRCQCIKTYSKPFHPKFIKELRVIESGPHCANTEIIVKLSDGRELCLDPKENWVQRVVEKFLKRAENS

human IL-8 [2] = biological target: human IL-8 (human); experiment: SPR, pH 5.8, 37C
human IL-8 [3] = biological target: human IL-8 (human); experiment: SPR, pH 5.8
human IL-8 [4] = biological target: human IL-8 (human); experiment: SPR, pH 7.4
human IL-8 [5] = biological target: human IL-8 (human); experiment: SPR, pH 7.4; remark: listed apart in the source
human IL-8 [6] = biological target: human IL-8 (human); experiment: SPR, pH 5.8, 37C; remark: listed apart in the source
human IL-8 [7] = biological target: human IL-8 (human); experiment: SPR, pH 5.8; remark: listed apart in the source

Binder	Kd (human IL-8 [1]) [nM]	Kd (human IL-8 [2]) [nM]	Kd (human IL-8 [3]) [nM]	Kd (human IL-8 [4]) [nM]	Kd (human IL-8 [5]) [nM]	Kd (human IL-8 [6]) [nM]	Kd (human IL-8 [7]) [nM]
B1	0.699	35.1					
B2			87	0.071			
B3		21.5	49	0.17	0.172	31.8	48.8
B4	0.108	5.04					

Reference: patent US11780912 (dated 2023)
